# Experimental data taken from US20120258121A1 (OMEROS, published 2012).
# T1: human FN14 on the cell surface (FN14-transfected cells or cancer cell lines intrinsically expressing FN14, … (human, UniProt Q9NP84 28-129))
# T1 construct: The cells in the assays are human cancer lines or FN14-transfected cells (293F/FN14); also called TWEAKR; CD266
# T1 sequence: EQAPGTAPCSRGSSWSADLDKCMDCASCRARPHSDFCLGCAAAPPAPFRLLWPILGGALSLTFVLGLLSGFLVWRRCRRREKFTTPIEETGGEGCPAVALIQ
# T2: recombinant human FN14-Fc fusion protein (rhFN14-Fc; R&D Systems) (human, UniProt Q9NP84 28-79)
# T2 construct: Bought reagent; Detected with PECy5-labeled anti-human IgG(Fc); also called soluble FN14; PECy5-labelled soluble antigen; not shown: Fc part of the bought fusion protein (detected with anti-human IgG(Fc))
# T2 sequence: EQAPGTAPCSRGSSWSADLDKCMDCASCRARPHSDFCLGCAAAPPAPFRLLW
# Tests used:
# [1] = target: T1, human FN14 on the cell surface …; experiment: binding affinity; method not restated in Example 3 (saturation binding on FN14-expressing cells by the methods of Example 1)
# [2] = target: T1, human FN14 on the cell surface …; experiment: as above; remark: listed apart in the source
# [3] = target: T2, recombinant human FN14-Fc fusion …; experiment: saturation binding of PECy5-labelled soluble antigen to FN14-specific DTLacO cells, flow cytometry
# Experimental: (§1) Saturation binding kinetics were determined by either staining FN14-specific DTLacO cells with various concentrations of fluorescent-labeled soluble antigen, or by staining FN14-transfected cells or cancer cell lines intrinsically expressing FN14 with various concentrations of the recombinant chimeric anti-FN14 mAbs.
# [4] = target: T1, human FN14 on the cell surface …; experiment: saturation binding of recombinant antibody on target-expressing cells
# Experimental: as §1
# [5] = target: T2, recombinant human FN14-Fc fusion …; experiment: saturation binding of soluble antigen to DTLacO[FS24] cells, flow cytometry
# [6] = target: T1, human FN14 on the cell surface …; experiment: saturation binding of recombinant antibody on target-expressing cells (A375 melanoma)
# Experimental: as §1
binder,measurement,setting,value
"Humanized PS4: H.1/L.9 (antibody, human IgG1, lambda, also called humanized PS4 antibody H.1/L.9) heavy: not shown light: ALTQPPSVSVSPGQTARITCSGGGSSYYAGSYYYGWYQQKPGQAPVTVIYYNNKRPSGIPERFSGSLSGSTNTLTISGVQAEDEADYYCGSIDNSGAAFGGGTKLTVLGQPKAAPSVTLFPPSSEELQANKATLVCLISDFYPGAVTVAWKADSSPVKAGVETTTPSKQSNNKYAASSYLSLTPEQWKSHRSYSCQVTHEGSTVEKTVAPTECS",Kd,[1],0.24 nM
"Humanized FS24 (antibody, human IgG1, lambda, V domains shown, also called hFS24; humanized FS24 antibody) VH: EVQLVESGGGLVQPGGSLRLSCAASGFTFSSYDMAWVRQAPGKGLEWVAGIDYDGSGRRYAPAVKGRATISRDNSKNTLYLQMNSLRAEDTAVYYCTKCGYTGGCDYEGGYIDAWGQGTLVTVSS VL: ELTQPPSVSVSPGQTARITCSGGGSSYYAGSYYYGWYQQKPGQAPVTLIYYNNKRPSGIPERFSGSLSGSTNTLTISGVQAEDEADYYCGSIDNSGAAFGGGTKLTVLG",Kd,[2],0.21 nM
"surface immunoglobulin of the FN14-specific DTLacO cell population FS17 (antibody, V domains shown, Chicken surface IgM on DTLacO cells) VH: AVTLDESGGGLQTPGGALSLVCKASGFTFSSYDMAWVRQEPGKGLEWVAGIDDDGSGRRYAPAVKGRATISRDNGQSTLRLQLNNLRAEDTGTYYCTKCAYTGGCDYEGGYIDAWGHGTEVIVSS VL: ALTQPASVSANPGETVKITCSGGGSSYYAGSYYYGWYQQKAPGSAPVTLIYYNNKRPSDIPSRFSGSLSGSTNTLTITGVRADDEAVYFCGSIDNSGAAFGAGTTLTVL",Kd,[3],0.7 nM
"recombinant chimeric monoclonal antibody PS4B (chicken V regions, human IgG1 / lambda constant regions) (antibody, V domains shown) VH: AVTLDESGGGLQTPGGALSLVCKASGFTFSSYDMFWVRQEPGKGLEWVAGIDDDGSGRRYAPAVKGRATISRDNGQSTLRLQLNNLRAEDTGTYYCTKCAYSSGCDYEGGYIDAWGHGTEVIVSS VL: ALTQPASVSANPGETVKITCSGGGSSYYAGSYYYGWYQQKSPGSAPVTVIYYNNKRPSDIPSRFSGSLSGSTNTLTITGVRADDEAVYFCGSIDNSGAAFGAGTTLTVLG",Kd,[4],0.35 nM
"chimeric PS4 antibody (parent of the humanized PS4 versions) (antibody, human IgG1, lambda, V domains shown, also called Chicken PS4; original chimeric antibody PS4) VH: AVTLDESGGGLQTPGGALSLVCKASGFTFSSYDMFWVRQEPGKGLEWVAGIDDDGSGRRYAPAVKGRATISRDNGQSTLRLQLNNLRAEDTGTYYCTKCAYSSGCDYEGGYIDAWGHGTEVIVSS VL: ALTQPASVSANPGETVKITCSGGGSSYYAGSYYYGWYQQKSPGSAPVTVIYYNNKRPSDIPSRFSGSLSGSTNTLTITGVRADDEAVYFCGSIDNSGAAFGAGTTLTVLG",Kd,[1],0.21 nM
"surface immunoglobulin of the FN14-specific DTLacO cell population FS24 (antibody, V domains shown, Chicken surface IgM on DTLacO cells; also called DTLacO[FS24]) VH: AVTLDESGGGLQTPGGALSLVCKASGFTFSSYDMAWVRQEPGKGLEWVAGIDYDGSGRRYAPAVKGRATISRDNGQSTLRLQLNNLRAEDTGTYYCTKCGYTGGCDYEGGYIDAWGHGTEVIVSS VL: ALTQPSSVSANPGETVKITCSGGGSSYYAGSYYYGWYQQKAPGSAPVTLIYYNNKRPSDIPSRFSGSLSGSTNTLTITGVRADDEAVYFCGSIDNSGAAFGAGTTLTVL",Kd,[5],0.44 nM
same,Kd,[3],0.67 nM
"recombinant chimeric monoclonal antibody FS24 (chicken V regions, human IgG1 / lambda constant regions) (antibody, V domains shown, also called mAb FS24; Chicken FS24) VH: AVTLDESGGGLQTPGGALSLVCKASGFTFSSYDMAWVRQEPGKGLEWVAGIDYDGSGRRYAPAVKGRATISRDNGQSTLRLQLNNLRAEDTGTYYCTKCGYTGGCDYEGGYIDAWGHGTEVIVSS VL: ALTQPSSVSANPGETVKITCSGGGSSYYAGSYYYGWYQQKAPGSAPVTLIYYNNKRPSDIPSRFSGSLSGSTNTLTITGVRADDEAVYFCGSIDNSGAAFGAGTTLTVLG",Kd,[2],0.26 nM
same,Kd,[6],0.21 nM
"recombinant chimeric monoclonal antibody PS4A (chicken V regions, human IgG1 / lambda constant regions) (antibody, V domains shown) VH: AVTLDESGGGLQTPGGALSLVCKASGFTFSSYDMFWVRQEPGKGLEWVAGIDDDGSGRRYAPAVKGRATISRDNGQSTLRLQLNNLRAEDTGTYYCTKCAYSSGCDYEGGYIDAWGHGTEVIVSS VL: ALTQPSSVSANPGETVKITCSGGGSSYYAGSYYYGWYQQKAPGSAPVTLIYYNNKRPSDIPSRFSGSLSGSTNTLTITGVRADDEAVYFCGSIDNSGAAFGAGTTLTVLG",Kd,[4],0.21 nM
"recombinant chimeric monoclonal antibody FS10 (chicken V regions, human IgG1 / lambda constant regions) (antibody, V domains shown, expressed in 293F cells; also called mAb FS10) VH: AVTLDESGGGLQTPGGALSLVCKASGFTFSSYDMAWVRQEPGKGLEWVAGIDDDGSGRRYAPAVKGRATISRDNGQSTLRLQLNNLRAEDTGTYYCTKCAYSSGCDYEGGYIDAWGHGTEVIVSS VL: ALTQPASVSANPGETVKITCSGGGSSYYAGSYYYGWYQQKAPGSALVTLIYYNNKRPSDIPSRFSGSLSGSTNTLTITGVRADDEAVYFCGSADNSGAAFGAGTTLTVLG",Kd,[4],25 nM
"surface immunoglobulin of the FN14-specific DTLacO cell population FS10 (antibody, V domains shown, Chicken surface IgM on DTLacO (DT40-derived) cells) VH: AVTLDESGGGLQTPGGALSLVCKASGFTFSSYDMAWVRQEPGKGLEWVAGIDDDGSGRRYAPAVKGRATISRDNGQSTLRLQLNNLRAEDTGTYYCTKCAYSSGCDYEGGYIDAWGHGTEVIVSS VL: ALTQPASVSANPGETVKITCSGGGSSYYAGSYYYGWYQQKAPGSALVTLIYYNNKRPSDIPSRFSGSLSGSTNTLTITGVRADDEAVYFCGSADNSGAAFGAGTTLTVL",Kd,[3],25 nM
"recombinant chimeric monoclonal antibody FS17 (chicken V regions, human IgG1 / lambda constant regions) (antibody, V domains shown, also called mAb FS17) VH: AVTLDESGGGLQTPGGALSLVCKASGFTFSSYDMAWVRQEPGKGLEWVAGIDDDGSGRRYAPAVKGRATISRDNGQSTLRLQLNNLRAEDTGTYYCTKCAYTGGCDYEGGYIDAWGHGTEVIVSS VL: ALTQPASVSANPGETVKITCSGGGSSYYAGSYYYGWYQQKAPGSAPVTLIYYNNKRPSDIPSRFSGSLSGSTNTLTITGVRADDEAVYFCGSIDNSGAAFGAGTTLTVLG",Kd,[4],0.36 nM
"Humanized PS4: H.1/L.1 (antibody, human IgG1, also called first humanized version of PS4) heavy: not shown light: SYELTQPPSVSVSPGQTARITCSGGGSSYYAGSYYYGWYQQKPGQAPVTVIYYNNKRPSGIPERFSGSLSGSTNTLTISGVQAEDEADYYCGSIDNSGAAFGGGTKLTVLGQPKAAPSVTLFPPSSEELQANKATLVCLISDFYPGAVTVAWKADSSPVKAGVETTTPSKQSNNKYAASSYLSLTPEQWKSHRSYSCQVTHEGSTVEKTVAPTECS",Kd,[1],15 nM
